# Publication PMC6882493 (Emerging Microbes & Infections, 2019)
# Like-named read-outs stand apart in the source and are kept apart here.
# How the values were obtained:
# PNGM-1 [1] = settings: read-out: PNGM-1^a; 50 mM MES pH 7.0, 30 °C, 100 μM ZnCl2, 100 μg/ml BSA; footnote: identical to data from authors' earlier reference 13; cited from earlier work
# Target sequence in this assay (Z9H0G7B495 1-372 limits assumed): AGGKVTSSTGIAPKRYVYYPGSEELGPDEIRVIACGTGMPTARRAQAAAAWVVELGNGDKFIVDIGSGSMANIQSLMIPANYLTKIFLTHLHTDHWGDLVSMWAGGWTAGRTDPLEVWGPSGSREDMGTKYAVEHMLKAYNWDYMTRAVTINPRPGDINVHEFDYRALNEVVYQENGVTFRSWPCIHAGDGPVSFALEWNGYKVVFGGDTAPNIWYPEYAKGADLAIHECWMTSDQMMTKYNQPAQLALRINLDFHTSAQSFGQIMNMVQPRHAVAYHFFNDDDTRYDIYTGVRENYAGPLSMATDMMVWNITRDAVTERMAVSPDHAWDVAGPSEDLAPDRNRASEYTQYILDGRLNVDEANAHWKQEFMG
# PNGM-1 [2] = test system: PNGM-1
# Target sequence in this assay (Z9H0G7B495 1-372 H256A limits assumed): as the sequence (Z9H0G7B495 1-372 limits assumed) above, with H256A counted along it
# PNGM-1 [3] = test system: PNGM-1; remark: listed apart in the source
# Target sequence in this assay (Z9H0G7B495 1-372 H256A limits assumed): as the sequence (Z9H0G7B495 1-372 limits assumed) above, with H256A counted along it
# PNGM-1 [4] = settings: read-out: PNGM-1^a; 50 mM MES pH 7.0, 30 °C, 100 μM ZnCl2, 100 μg/ml BSA; footnote: identical to data from authors' earlier reference 13; cited from earlier work; remark: listed apart in the source
# Target sequence in this assay (Z9H0G7B495 1-372 limits assumed): as the sequence (Z9H0G7B495 1-372 limits assumed) above
# PNGM-1 [5] = test system: PNGM-1; remark: listed apart in the source
# Target sequence in this assay (Z9H0G7B495 1-372 H256A limits assumed): as the sequence (Z9H0G7B495 1-372 limits assumed) above, with H256A counted along it
# PNGM-1 [6] = settings: read-out: PNGM-1^a; 50 mM MES pH 7.0, 30 °C, 100 μM ZnCl2, 100 μg/ml BSA; footnote: identical to data from authors' earlier reference 13; cited from earlier work; remark: listed apart in the source
# Target sequence in this assay (Z9H0G7B495 1-372 limits assumed): as the sequence (Z9H0G7B495 1-372 limits assumed) above
# PNGM-1 [7] = settings: read-out: PNGM-1^a; 50 mM MES pH 7.0, 30 °C, 100 μM ZnCl2, 100 μg/ml BSA; footnote: identical to data from authors' earlier reference 13; cited from earlier work; remark: listed apart in the source
# Target sequence in this assay (Z9H0G7B495 1-372 limits assumed): as above
# PNGM-1 [8] = settings: read-out: PNGM-1^a; 50 mM MES pH 7.0, 30 °C, 100 μM ZnCl2, 100 μg/ml BSA; footnote: identical to data from authors' earlier reference 13; cited from earlier work; remark: listed apart in the source
# Target sequence in this assay (Z9H0G7B495 1-372 limits assumed): as above
# PNGM-1 [9] = settings: read-out: PNGM-1^a; 50 mM MES pH 7.0, 30 °C, 100 μM ZnCl2, 100 μg/ml BSA; footnote: identical to data from authors' earlier reference 13; cited from earlier work; remark: listed apart in the source
# Target sequence in this assay (Z9H0G7B495 1-372 limits assumed): as above
# [10] = test system: C[C@@H](O)[C@H]1C(=O)N2C(C(=O)O)=C(SCCN=CN)C[C@H]12; assay: purified protein; settings: 50 mM MES pH 7.0, 30 °C, 100 μM ZnCl2, 100 μg/ml BSA
# [11] = test system: C[C@@H](O)[C@H]1C(=O)N2C(C(=O)O)=C(S[C@@H]3CN[C@H](C(=O)N(C)C)C3)[C@H](C)[C@H]12; assay: purified protein; settings: 50 mM MES pH 7.0, 30 °C, 100 μM ZnCl2, 100 μg/ml BSA
# [12] = test system: C[C@@H](O)[C@H]1C(=O)N2C(C(=O)O)=C(S[C@@H]3CN[C@H](C(=O)Nc4cccc(C(=O)O)c4)C3)[C@H](C)[C@H]12; assay: purified protein; settings: 50 mM MES pH 7.0, 30 °C, 100 μM ZnCl2, 100 μg/ml BSA
Compound,Km [10] [µM],kcat [10] [s⁻¹],kcat/Km [10] [M⁻¹ s⁻¹],Km [11] [µM],kcat [11] [s⁻¹],Km [12] [µM],kcat [12] [s⁻¹],also measured
CO/N=C(\C(=O)N[C@@H]1C(=O)N2C(C(=O)O)=C(COC(C)=O)CS[C@H]12)c1csc(N)n1 [cefotaxime],,,,,,,,Km (PNGM-1 [1]): 3.3 ± 0.1 µM; Km (PNGM-1 [2]): 3.1 ± 0.1 µM
CO[C@@]1(NC(=O)Cc2cccs2)C(=O)N2C(C(=O)O)=C(COC(N)=O)CS[C@@H]21 [cefoxitin],,,,,,,,Km (PNGM-1 [3]): 3.8 ± 0.1 µM; Km (PNGM-1 [4]): 4.3 ± 0.1 µM
CC(C)(O/N=C(\C(=O)N[C@@H]1C(=O)N2C(C(=O)[O-])=C(C[n+]3ccccc3)CS[C@H]12)c1csc(N)n1)C(=O)O [ceftazidime],,,,,,,,Km (PNGM-1 [5]): 15.4 ± 0.1 µM; Km (PNGM-1 [6]): 15.9 ± 0.2 µM
C[C@@H](O)[C@H]1C(=O)N2C(C(=O)O)=C(S[C@@H]3CN[C@H](C(=O)Nc4cccc(C(=O)O)c4)C3)[C@H](C)[C@H]12 [ertapenem],,,,,,,,Km (PNGM-1 [7]): 1900 ± 100 nM
C[C@@H](O)[C@H]1C(=O)N2C(C(=O)O)=C(SCCN=CN)C[C@H]12 [imipenem],,,,,,,,Km (PNGM-1 [8]): 2000 ± 100 nM
C[C@@H](O)[C@H]1C(=O)N2C(C(=O)O)=C(S[C@@H]3CN[C@H](C(=O)N(C)C)C3)[C@H](C)[C@H]12 [meropenem],,,,,,,,Km (PNGM-1 [9]): 1900 ± 100 nM
AIM-1 (Pseudomonas aeruginosa),3.8 ± 0.1,11.128 ± 0.0001,2.9e+06 ± 200000,4.6 ± 0.1,15.409 ± 0.0001,5.0 ± 0.1,12.376 ± 0.0001,kcat/Km [12]: 2.5e+06 ± 200000 M⁻¹ s⁻¹
FEZ-1 (Fluoribacter gormanii),3.5 ± 0.1,0.763 ± 0.001,220000 ± 10000,4.2 ± 0.1,0.773 ± 0.001,4.6 ± 0.1,0.667 ± 0.001,kcat/Km [11]: 180000 ± 10000 M⁻¹ s⁻¹
GOB-18 (Elizabethkingia meningoseptica),4.8 ± 0.1,6.188 ± 0.003,1.3e+06 ± 200000,5.7 ± 0.1,8.568 ± 0.001,6.3 ± 0.1,6.882 ± 0.002,kcat/Km [11]: 1.5e+06 ± 100000 M⁻¹ s⁻¹; kcat/Km [12]: 1.1e+06 ± 200000 M⁻¹ s⁻¹
